Values of other authors as cited in PMC6158072.

Legend:
Cys = details: not stated (presumably the reduced thiol form)

Substance: Acetoacetate decarboxylase (not stated (Clostridium acetobutylicum inferred))
- pKa (Lys): around 6

Substance: Peroxiredoxin 5 (Prx5) (Homo sapiens)
- pKa (Cys): 5.5
